Consider three molecules from paper PMC6879491 (Nature Communications, 2019).

What all share (assay): cell-bound Gaussia luciferase activity (equilibrium binding on intact cells); Jurkat (CD3, CD45) or U266 (HLA-A2) cells, 1 h at 37 °C with increasing concentrations of GpL fusion proteins, washed five times with ice-cold PBS; specific binding = total minus non-specific
Details in all cases: partners not purified

The target of one assay is T1, CD3 on Jurkat cells (Homo sapiens (Jurkat, donor T cells), UniProt P07766).
T1 construct: CD3ε, the chain addressed by the diL2K scFv, on the surface of CD3-positive cells; On cells CD3ε stands within the TCR-CD3 complex; also called CD3ε; CD3 antigen; source: on donor T cells (functional assays)

The target of another assay is T2, CD45 on cells (Homo sapiens (Jurkat, THP-1), UniProt P08575).
T2 construct: CD45 on the surface of human cell lines; also called pan-hematopoietic lineage marker CD45; source: on THP-1 cells (functional assays)

The target in a further assay is T3, HLA-A2 on cells (Homo sapiens, HLA-A*02:01 (allele …, strain)).
T3 construct: HLA-A2 on the surface of HLA-A2-positive human cell lines; source: on THP-1 cells (functional assays)

In general, Kd refers to the equilibrium constant for the complex coming apart. Low readings indicate tighter binding, high ones weaker binding.

T2 sequence (P08575 26-1306): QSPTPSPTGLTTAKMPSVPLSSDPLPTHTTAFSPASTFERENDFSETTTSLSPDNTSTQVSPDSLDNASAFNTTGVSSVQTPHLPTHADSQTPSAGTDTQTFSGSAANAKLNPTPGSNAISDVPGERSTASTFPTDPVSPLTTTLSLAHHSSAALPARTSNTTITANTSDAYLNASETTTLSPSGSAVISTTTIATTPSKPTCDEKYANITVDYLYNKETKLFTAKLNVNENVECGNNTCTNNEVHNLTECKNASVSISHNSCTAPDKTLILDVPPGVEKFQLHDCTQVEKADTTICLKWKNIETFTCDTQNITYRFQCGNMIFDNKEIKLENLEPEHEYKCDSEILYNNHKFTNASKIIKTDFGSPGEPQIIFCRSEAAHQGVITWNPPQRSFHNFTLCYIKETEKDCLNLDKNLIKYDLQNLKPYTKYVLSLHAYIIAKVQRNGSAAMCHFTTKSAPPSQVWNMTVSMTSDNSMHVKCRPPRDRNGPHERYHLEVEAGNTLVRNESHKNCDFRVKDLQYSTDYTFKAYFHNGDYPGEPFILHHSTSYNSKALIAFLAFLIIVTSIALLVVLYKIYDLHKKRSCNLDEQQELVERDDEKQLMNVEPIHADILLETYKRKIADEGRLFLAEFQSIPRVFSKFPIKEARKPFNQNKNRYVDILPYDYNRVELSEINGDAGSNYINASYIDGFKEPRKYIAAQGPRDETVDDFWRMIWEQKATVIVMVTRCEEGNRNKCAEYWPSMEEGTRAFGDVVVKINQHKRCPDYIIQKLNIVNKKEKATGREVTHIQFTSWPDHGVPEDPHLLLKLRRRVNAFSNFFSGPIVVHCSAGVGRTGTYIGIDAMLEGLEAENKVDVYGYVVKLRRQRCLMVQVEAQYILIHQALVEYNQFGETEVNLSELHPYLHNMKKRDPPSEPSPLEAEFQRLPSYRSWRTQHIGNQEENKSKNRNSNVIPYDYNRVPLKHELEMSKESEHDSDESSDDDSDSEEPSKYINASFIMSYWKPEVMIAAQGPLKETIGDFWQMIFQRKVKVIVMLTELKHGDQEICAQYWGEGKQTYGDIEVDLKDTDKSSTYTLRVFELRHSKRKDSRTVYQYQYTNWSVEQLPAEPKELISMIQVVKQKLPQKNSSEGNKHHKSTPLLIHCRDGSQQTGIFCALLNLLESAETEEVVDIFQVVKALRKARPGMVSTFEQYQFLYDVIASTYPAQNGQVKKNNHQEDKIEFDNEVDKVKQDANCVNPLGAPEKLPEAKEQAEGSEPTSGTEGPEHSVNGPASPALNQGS

B1: scFvαCD3-GpL (scFv, V domains shown)
VH: DVQLVQSGAEVKKPGASVKVSCKASGYTFTRYTMHWVRQAPGQGLEWIGYINPSRGYTNYADSVKGRFTITTDKSTSTAYMELSSLRSEDTATYYCARYYDDHYCLDYWGQGTTVTVSS
VL: DIVLTQSPATLSLSPGERATLSCRASQSVSYMNWYQQKPGKAPKRWIYDTSKVASGVPARFSGSGSGTDYSLTINSLEAEDAATYYCQQWSSNPLTFGGGTKVEIK
notes: scFv of the anti-CD3ε antibody diL2K (de-immunized version of mouse monoclonal L2K); as the anti-CD3 scFv of m3 (GenBank MN432903); Expression plasmid pCR3; also called scFvCD3-GpL; anti-CD3 scFv fused to Gaussia princeps luciferase; source: Hek293, electroporated, secreted, in supernatant
B1: the Kd with CD3 on Jurkat cells came out at 11.1 nM.

B2: scFvαCD45-GpL (scFv, V domains shown)
VH: QVQLVESGGGLVQPGGSLKLSCAASGFDFSRYWMSWVRQAPGKGLEWIGEINPTSSTINFTPSLKDKVFISRDNAKNTLYLQMSKVRSEDTALYYCARGNYYRYGDAMDYWGQGTSVTVSG
VL: DIVLTQSPASLAVSLGQRATISCRASKSVSTSGYSYLHWYQQKPGQPPKLLIYLASNLESGVPARFSGSGSGTDFTLNIHPVEEEDAATYYCQHSRELPFTFGSGTKLEIK
notes: as the scFv of m2 (GenBank MN432904); Expression plasmid pCR3; also called scFvCD45-GpL; anti-CD45 scFv fused to Gaussia princeps luciferase; source: Hek293, electroporated, secreted, in supernatant
Molecule B2 gave a Kd with CD45 on cells of 11.8 nM.

B3: scFvαHLA-A2-GpL (scFv, V domains shown)
VH: QVQLVQSGGGVVQPGGSLRVSCAASGVTLSDYGMHWVRQAPGKGLEWMAFIRNDGSDKYYADSVKGRFTISRDNSKKTVSLQMSSLRAEDTAVYYCAKNGESGPLDYWYFDLWGRGTLVTVSS
VL: DVVMTQSPSSLSASVGDRVTITCQASQDISNYLNWYQQKPGKAPKLLIYDASNLETGVPSRFSGSGSGTDFTFTISSLQPEDFATYYCQQYSSFPLTFGGGTKVDIK
notes: scFv of the human anti-HLA-A2/A28 antibody clone 3PF12 (VH GenBank AF163307, VL GenBank AF163308); as the scFv of m1 (GenBank MN432902); Expression plasmid pCR3; also called scFvHLA-A2-GpL; anti-HLA-A2 scFv fused to Gaussia princeps luciferase; source: Hek293, electroporated, secreted, in supernatant
In turn, B3 had a Kd with HLA-A2 on cells of 0.9 nM.
